This series can be described thus: yeast display, Sf9 membrane polyspecificity reagent, FACS + sequencing; frameworks hold sequencing errors. The gist of the method:
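After 36–48 hours of galactose induction, yeast (Saccharomyces cerevisiae BJ5465) displaying a synthetic nanobody library were stained at 4 °C for 1 hour with 10% biotinylated, detergent-solubilized Sf9 membrane reagent. Streptavidin microbeads enriched the stained cells before FACS sorting into low and high (top ~1%) gates on anti-HA and streptavidin fluorescence. Each clone's polyreactivity label reflects its gate of origin.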
As to “QVQLVESGGGLVQAGGSLRLSCAASGRTFDLNAMGWYRQAPGKERELVAAISFSVADTYYADSVKGRFTISRDNAKNTVYLQMNSLKPEDTAVYYCAADSELGSLSGESDYWGQGTQVTVSS”, the “polyreactivity (PSR sort gate)” value is “low polyreactivity”.
On to “QVQLVESGGGLVQAGGSLRLSCAASGRTFDLYAMGWYRQAPGKERELVARITNIDDSTYYADSVKGRFTISRDYAKNTVYLQMNSLKPEDTAVYYCNAASYSRGPARYDYWGQGTQVTVSS”, for which the “polyreactivity (PSR sort gate)” value is reported as “high polyreactivity”.
As for “QVQLVESGGGLVQAGGSLRLSCAASGRTFDPYAMGWYRQAPGKDRELVAAISRSGGSTYYADSVKGRFTISRDNAKNTVYLQMNSLKPEDTAVYYCAADASRYYYEYDYWGQGTQVTVSS”, the entry is “high polyreactivity”; as for “QVQLVESGGGLVQAGGSLRLSCAASGRTFDQYAMGWYTPAPGKARELVADITWSGGTTRYADSVKRRFTISRDNAKNTVYLQMNSLKPEDTAVYYCAVDVTCGYNYWGQGTQVNVSS”, “low polyreactivity”.
As for “QVQLVESGGGLVQAGGSLRLSCAASGRTFDRNAMGWYRQAPGKERELVAAITSRGGRTYYADSVKGRFTISRDNAKNTVYLQMNSLKPEDTAVYYCAADLFSSRVRSNFDYWGQGTQVTVSS”, the entry is “high polyreactivity”; as for “QVQLVESGGGLVQAGGSLRLSCAASGRTFDSNTMGWYRQAPGKERELVAAITGSGGRTYYADSVKGRFTISRDNAKNSVYLQMNSLKPEDTAVYYCAARPYFYERSAGYYWGQGTQVTVSS”, “high polyreactivity”; as for “QVQLVESGGGLVQAGGSLRLSCAASGRTFDSYVMGWYRQAPGKERELVAAISSRGGTYYADSVKGRFTISRDNAKNTVYLQMNSLKPEDTAVYYCAARIYRKYYRYDYWGQGTQVTVSS”, “high polyreactivity”.
To “QVQLVESGGGLVQAGGSLRLSCAASGRTFDTYAMGWYRQAPWKERELVAAITRRTYYADSVKGRFTISRDNAKNSVYLQMNSLKPEDTAVYYCAVRFLRKWTSSRHYGYWGQGTQVTVSS” belongs “high polyreactivity”; to “QVQLVESGGGLVQAGGSLRLSCAASGRTFDVYAMGWYRPAPGKERELVATIRSDGSTTYADSVKGRFTISRDNAKNTDYLQLNSLKPEDTAVYYCAAERVGVFFRYDYWGQGTQVTVSS”, “low polyreactivity”.
On to “QVQLVESGGGLVQAGGSLRLSCAASGRTFDVYAMGWYRQAPGKERELVAAISWSGGGTYYADSVKGRFTISRDNAKNTVYLQLTSLNPADTAVYSCAAALTFALDPNRYTYSDYYYWGQGTQVTVSS”, for which the “polyreactivity (PSR sort gate)” value is listed as “low polyreactivity”.
On to “QVQLVESGGGLVQAGGSLRLSCAASGRTFDYKAMGWYRQAPGKERELVAAIDVNGGDTYYADSVKGRFTISRDNAKNTVYLQMNSLKPEDTAVYYCAAERDARTDDYWGQGTQVTVSS”, for which the “polyreactivity (PSR sort gate)” value was “low polyreactivity”.
As for “QVQLVESGGGLVQAGGSLRLSCAASGRTFDYNTMGWYRQAPGKVRELVAAISASGGSTYYADSVKGRFTISRDNAKNTVDLPMNSLKPEDTAVYYCNTYAGVEYYHWGQGTQVTVSS”, the entry is “low polyreactivity”; as for “QVQLVESGGGLVQAGGSLRLSCAASGRTFDYYAMGWYRQAPGKERELVAAISSSGGSTYYADSVKGRFTISRDNAKNTVYLQMNSLKPEDTEVYYCNAYAYRFNHIHHIYTTDGEYWGQGTQVTVSS”, “high polyreactivity”.
To “QVQLVESGGGLVQAGGSLRLSCAASGRTFDYYAMGWYRQAPGKERELVAAITSGGSTYYADSVKGRFTISRDNAKNTDYLQMNSLKPEDTAVYYCAKSWALTRGYGSRYYVYRYDYWGQGTQVTVSS” belongs “low polyreactivity”; to “QVQLVESGGGLVQAGGSLRLSCAASGRTFEGNALGWYRQAPGKERELVAAITSGGRTNYADSVKGRFTISRDNAKNTVYLQMNSLKPEDTAVYYCAVETRDRSTYFPGQAYDYWGQGTQVTVSS”, “low polyreactivity”.
To “QVQLVESGGGLVQAGGSLRLSCAASGRTFEGYAMGWYRQAPGKERELVAAISNSGGSTYYADSVKGRFTIARDNAKNTVYLQMNSLKPEDTAVYYCAALSRIPRYGYWGQGTQVTVSA” belongs “high polyreactivity”.
“QVQLVESGGGLVQAGGSLRLSCAASGRTFEHYAMGWYRQAPGKERELVAAINSSDGGTYYADSVKGRFTISRDNAKNTVYLQMNSLKPEDTAVYYCAAAEFGSVPGYEMDYWGQGTQVTVSS”: the “polyreactivity (PSR sort gate)” value is on record as “low polyreactivity”.
As for “QVQLVESGGGLVQAGGSLRLSCAASGRTFENYAMGWYRQAPGKERELVAAISKSGGSTYYADSVKGRFTISRDNAKNTVYLQMNSLKPEDTAVYYCNARPGQSGARFGYWGQGTQVTVSS”, the entry is “high polyreactivity”.
In the case of “QVQLVESGGGLVQAGGSLRLSCAASGRTFENYVMGWYRQAPGKERELVPAITVSGGSTYYADSVKGRFTISRDIAKNTVYLQMNSLKPEDTAVYYCAADPNVLFSQKYYEPNDYWGQGTQVTVSS”, the “polyreactivity (PSR sort gate)” value is recorded as “low polyreactivity”.
As for “QVQLVESGGGLVQAGGSLRLSCAASGRTFERNALGWYRQAPGKEREFVAAITEIGGSTYYADSVKGRFTISRDNAMNTVYLQMNSLKPEDTAVYYCAKDGTYSPYDYWGQGTQVTVSS”, the entry is “low polyreactivity”; as for “QVQLVESGGGLVQAGGSLRLSCAASGRTFESYGMGWYRQAPGKERELVAAITWSGGDTYYADSVKGRFTISRDNAKNTVYLQMNSLKPEDTAVYYCAKEQGLYSVSPYDYWGQGTQVTVSS”, “low polyreactivity”.
As to “QVQLVESGGGLVQAGGSLRLSCAASGRTFETNAMGWYRQAPGKERELVASINWSGGSTYYADSVKGRFTISRDNAKNTVYLQMNSLKPEDTAVFYCAADHSYWDWWSYYYWGQGTQVTVSS”, the “polyreactivity (PSR sort gate)” value was “low polyreactivity”.
As for “QVQLVESGGGLVQAGGSLRLSCAASGRTFETNAMGWYRQAPGKERELVASINWSGGSTYYADSVKGRFTISRDNAKNTVYLQMNSLKPEDTAVYYCAAEHSYWDWWSYYYWGQGTLVTVSS”, the entry is “low polyreactivity”; as for “QVQLVESGGGLVQAGGSLRLSCAASGRTFEYNAMGWYRQAPGKEREFVAAITYSGGGTYYADSVKGRFTISRDNAKNTVYLQMNSLKPEDTAVYYCARERTRVHKHYYWGQGTQVTVSS”, “low polyreactivity”.
To “QVQLVESGGGLVQAGGSLRLSCAASGRTFEYYAMGWYRPAPGKERELVAAITYSGDSTYYADSVKGRFTISRDNAKNTVYLQMNSLKPEDTAVYYCAADWSSLKDDYWGQGTQVTVSS” belongs “low polyreactivity”.
To “QVQLVESGGGLVQAGGSLRLSCAASGRTFEYYAMGWYRQAPGKEREFVAAISRRGDSTYYADSVKGRFTISRDNAKNTVYLQMNSLKPEDTAVYYCAAKSYSARTKYYYWGQGTQVTVSS” belongs “high polyreactivity”.
In the case of “QVQLVESGGGLVQAGGSLRLSCAASGRTFEYYAMGWYRQAPGKERELVASISFGGGSTYADSVKGRFTISRDNAKNTVYLQMNSLKPEDTAVYYCAATGGWYKHWFDYWGQGTQVTVSS”, the “polyreactivity (PSR sort gate)” value is recorded as “low polyreactivity”.
To “QVQLVESGGGLVQAGGSLRLSCAASGRTFFANAMGWYRQAPGKERELVAAITSNTGTTYYADSVKGRFTISRDNAKNTVYLQMNSLKPEDTAVYYCAARYTFRYEYWGQGTQVTVSS” belongs “high polyreactivity”; to “QVQLVESGGGLVQAGGSLRLSCAASGRTFFDYAMGWYRQAPGKERELVATIRGGGSTNYADSVKGRFTISRDNAKNTVYLQMNSLKPEDTAVYYCAVRRRWYFPQYRSGRSLDYWGQGTQVTVSS”, “high polyreactivity”.
As for “QVQLVESGGGLVQAGGSLRLSCAASGRTFFENAMGWYRQAPGKEREFVAAISYNGGSTYYADSVKGRFTISRDNAKNTVYLQMNSLKPEDTAVYYCAAEADGLRYDDNYWGQCTQVTVSS”, the entry is “low polyreactivity”; as for “QVQLVESGGGLVQAGGSLRLSCAASGRTFFEYAMGWYRQAPGKERELVAIITNGATTNYADSVKGRFTISRDNAKNTVYLQMNSLKPEDTAVYYCAVAKWQPRRRKYYYWGQGTQVTVSS”, “high polyreactivity”.
As for “QVQLVESGGGLVQAGGSLRLSCAASGRTFFGYAMGWYRQAPGKERELVAAINWGGASTYYADSVKGRFTISRDNAKNTVYLQMNSLKPEDTAVYYCAADSVPSRPTYGRYDYWGQGTQVTVSS”, the entry is “low polyreactivity”; as for “QVQLVESGGGLVQAGGSLRLSCAASGRTFFKYAMGWYRQAPGKERELVAAIRSGTSTYYADSVKGRFTISRDNAKNTVYLHMNSLKPEDTAVYYCAADWHSKIGKGYDYWGQGTQVTVSS”, “high polyreactivity”; as for “QVQLVESGGGLVQAGGSLRLSCAASGRTFFKYAMGWYRQAPGKERELVAAISSVGSTYYADSVKGRFTISRDNAKNSVYLQMNSLKPEDTAVYYCAARKNRAYGYWGQGTQVTVSS”, “high polyreactivity”.
For “QVQLVESGGGLVQAGGSLRLSCAASGRTFFPNAMGWYRPAPGKERELVAAITWRGGSTYYADSVKGRFTISRDNAKNTVYLQMNSLKPEDTAVYYCAARDNPRWPRYYRGRTYDYWGQGTQVTVSS”, the “polyreactivity (PSR sort gate)” value was “high polyreactivity”.
To “QVQLVESGGGLVQAGGSLRLSCAASGRTFFPNEMGWYRQAPGKERELVAAITSAGSTNYADSVKGRFTISRDNEKTTVYLQMNSLKPEETAVYYCAAVYPPIHQRYIVDYWGQGTQETVSS” belongs “low polyreactivity”; to “QVQLVESGGGLVQAGGSLRLSCAASGRTFFPYAMGWYRQAPGKEREFVAAITKSDYSTYYADSVKGRFTISRDNAKNTVYLQKNSLKPEDNAVYYCNAGDTQIRFYYWGQGTQVTVSS”, “low polyreactivity”.
To “QVQLVESGGGLVQAGGSLRLSCAASGRTFFPYAMGWYRQAPGKERELVAAISLDDDTTYYADSVKGRFTISRDNAKNTVYLQMNSLKPEDTAVYYCAARGTRVRSLYDYWGQGTQVTVSS” belongs “high polyreactivity”.
For “QVQLVESGGGLVQAGGSLRLSCAASGRTFFPYAMGWYRQAPGKERELVAAITGSGSSTNYADSVKGRFTISRDNAKNTVYLQMTRLKPVDTAVYYCAKPYYRLEDYWGQGTQVTVSS”, the “polyreactivity (PSR sort gate)” value is listed as “low polyreactivity”.
As for “QVQLVESGGGLVQAGGSLRLSCAASGRTFFPYAMGWYRQAPGKERELVARISRTTGRTYYADSVKGRFTISRDNAKNTVFLQMNSLKPEDTAVYYCNAEGFRASGGYVRFEYWGQGTQVTVSS”, the entry is “high polyreactivity”.
Regarding “QVQLVESGGGLVQAGGSLRLSCAASGRTFFPYPRGCYRQAPGTDREFFAAITWSGGSTTYADSVKGRFTISRDNAKNTVYLQMNSLKPEDTAVYYCNAGRRRSYSYDYWGQGTQVTVSS”, the “polyreactivity (PSR sort gate)” value is listed as “low polyreactivity”.

The values are drawn from the nanobody polyreactivity screen of Harvey et al. (2022).
